Patent US20130109846A1 (published 2013)

Target: human CD28 (human, UniProt P10747 19-220)
Experiment: cell-based or functional assay

| Binder | Luciferase assay (EC50) [nM] | MLR assay (EC50) [nM] |
| --- | --- | --- |
| 1h-82 (other) VL: DIQMTQSPSSLSASVGDRVTITCRASQDIGLNLLWYQQKPGKAPTLLIYWSSMLQSGVPSRFSGSGSGTDFTLTISSLQPEDFATYYCQQGRMRPFTFGQGTKVEIKR | 1900 | – |
| 1h-109 (other) VL: DIQMTQSPSSLSASVGDRVTITCRASQDIGASLLWYQQKPGKAPKLLIYFSSMLQSGVPSRFSGSGSGTDFTLTISSLQPEDFATYYCQQSGMRPFTFGQGTKVEIKR | 1000 | – |
| 1h-90 (other) VL: DIQMTQSPSSLSASVGDRVTITCRASQTIGHGLVWYQQKPGKAPKLLIYWSSHLQSGVPSRFSGSGSGTDFTLTISSLQPEDFATYYCQQTLRTPFTFGQGTKVEIKR | 1000 | – |
| 1h-86 (other) VL: DIQMTQSPSSLSASVGDRVTITCRASQDIGQSLVWYQQKPGKAPKLLIYWASMLQSGVPSRFSGSGSGTDFTLTISSLQPEDFATYYCQQVMRRPFTFGQGTKVEIKR | 400 | – |
| 1h-80-2 (other) VL: DIQMTQSPSSLSASVGDRVTITCRASQRIGSNLAWYQQKPGKAPKLLIYWASLLQSGVPSRFSGSGSETDFTLTISSLQPEDFATYYCQQTRSAPFAFGQGTKVEIKR | 62 | 550 |
| 1h-80-7 (other) VL: DIQMTQSPSSLSASVGDRVTITCRASQRIGSNLAWYQQKPGKAPKLLIYWASLLQSGVPSRFSGSGSGSDFTLTISSLQPEDFATYYCQETRSAPFTFGQGTKVEIKR | 322 | – |
| 1h-81 (other) VL: DIQMTQSPSSLSASVGDRVTITCRASQEIDHGLAWYQQKPGKAPKLLIYWASRLQSGVPSRFSGSGSGTDFTLTISSLQPEDFATYYCQQVVAAPFTFGQGTKVEIKR | 3300 | – |
| 1h-79 (other) VL: DIQMTQSPSSLSASVGDRVTITCRASQPIGHSLAWYQQKPGKAPKLLIYWASTLQSGVPSRFSGSGSGTDFTLTISSLQPEDFATYYCQQMLRTPFTFGQGTKVEIKR | 3800 | 3200 |
| 1h-87 (other) VL: DIQMTQSPSSLSASVGDRVTITCRASQSIGKSLAWYQQKPGKAPKLLIYWVSLLQSGVPSRFSGSGSGTDFTLTISSLQPEDFATYYCQQIVSRPFTFGQGTKVEIKR | 1700 | – |
| 1h-83 (other) VL: DIQMTQSPSSLSASVGDRVTITCRASQSIGHSLVWYQQKPGKAPKLLIYWASLLQSGVSSRFSGSGSGTDFTLTISSLQPEDFATYYCQQSRAAPFTFGQGTKVEIKR | 1300 | 1700 |
| 1h-80 (other) VL: DIQMTQSPSSLSASVGDRVTITCRASQRIGSNLAWYQQKPGKAPKLLIYWASLLQSGVPSRFSGSGSGTDFTLTISSLQPEDFATYYCQQTRSAPFTFGQGTKVEIKR | 685 | 2000 |
| 1h-116 (other) VL: DIQMTQSPSSLSASVGDRVTITCRASQSIYPFLEWYQQKPGKAPRLLIYFTSRLQSGVPSRFSGSGSGTDFTLTISSLQPEDFATYYCQQNATNPATFGQGTKVEIKR | 2500 | 2400 |
| 1h-36 (other) VL: DIQMTQSPSSLSASVGDRVTITCRASRDIALDLLWYQQKPGKAPKLLIKGWSGLQSGVPSRFSGSGSGTDFTLTISSLQPEDFATYYCAQGWGRPVTFGQGTKVEIKR | 570 | 1800 |
| 1h-110 (other) VL: DIQMTQSPSSLSASVGDRVTITCRASRDIGHMLNWYQQKPGKAPKLLIWFGSVLQSGVPSRFSGSGSGTDFTLTISSLQPEDFATYYCVQGRLRPPTFGQGTKVEIKR | 4100 | – |
| 1h-84 (other) VL: DIQMTQSPSSLSASVGDRVTITCRASQSIGKGLMWYQQKPGKAPKLLIYWASMLQSGVPSRFSGSGSGTDFTLTISSLQPEDFATYYCQQSLRTPFTFGQGTEVEIKR | 1500 | – |
| 1h-112 (other) VL: DIQMTQSPSSLSASVGDRVTITCRASQHINASLGWYQQKPGKAPRLLIYWASQLQSGVPSRFSGSGSGTDFTLTISSLQPEDFATYYCQQMVRTPFTFGQGTKVEIKR | 775 | 850 |
| 1h-203 (other) VL: DIQMTQSPSSLSASVGDRVTITCRASQPIGSVLAWYQQKPGKAPKLLIYFSSILQSGVPSRFSGSGSGTDFTLTISSLQPEDFATYYCQQALRSPFTFGQGTKVEIKR | 880 | – |
| 1h-85 (other) VL: DIQMTQSPSSLSASVGDRVTITCRASQPIGASLLWYQQKPGKAPRLLIYWGSLLQSGVPSRFSGSGSGTDFTLTISSLQPEDLATYYCQQSLRTPFTFGQGTKVEIKR | 530 | – |
| 1h-108 (other) VL: DIQMTQSPSSLSASVGDRVTITCRASQYIGTALNWYQQKPGKAPKLLIYRRSHLQSGVPSRFSGSGSGTDFTLTISSLQPEDFATYYCQQIALTPYTFGQGTKVEIKR | 1900 | 2700 |
| 1h-108-5 (other) VL: DIQITQSPSSLSASVGDRVTITCRASQYIGTALNWYQQKPGKAPELLIYRGSHLQSGVPSRFSGSGSGTDFTLTISSLQPEDFVTYYCQQIALTPYTFGQGTKVEIKR | 1900 | – |

Continued, values first:

| Luciferase assay (EC50) [nM] | MLR assay (EC50) [nM] | Binder |
| --- | --- | --- |
| 2600 | – | 1h-207 (other) VL: DIQMTQSPSSLSASVGDRVTITCRASQYIGTSLAWYQQKPGKAPKLLIYHSSGLQSGVPSRFSGSGSGTDFTLTISSLQPEDFATYYCQQTALRPFTFGQGTKVEIKR |
| 5 | 3 | 1h-239-804 (other) VL: DIQMTQSPSSLSASVGDRVTITCRASQSIYPFLEWYQQKPGKAPKLLIYFTSRLQSGVPSRFSGSGSGTDFTLTISSLQPEDFATYYCLQNVSMPATFSQGTKVEIKR |
| 6 | 4 | 1h-239-809 (other) VL: DIQMTQSPSSLSASVGDRVTITCRASRPIWPFLEWYQQKPGKAPKLLIYFTSRLQSGVPSRFSGSGSGTDFTLTISSLQPEDFATYYCLQNVTNPATFSQGTKVEIKR |
| 13 | 11 | 1h-239-819 (other) VL: DIQMTQSPSSLSASVGDRVTITCRASQAIWPFLEWYQQKPGKAPKLLIYFTSRLQSGVPSRFSGSGSGTDFTLTISSLQPEDFATYYCLQNVTNPATFSQGTKVEIKR |
| 10 | 11 | 1h-239-829 (other) VL: DIQMTQSPSSLSASVGDRVTITCRASQSIYPFLEWYQQKPGKAPKLLIYFSSRLASGVPSRFSGSGSGTDFTLTISSLQPEDFATYYCLQNVTNPATFSQGTKVEIKR |
| 10 | 6 | 1h-239-815 (other) VL: DIQMTQSPSSLSASVGDRVTITCRASQPIWPFLEWYQQKPGKAPKLLIYFTSRLQSGVPSRFSGSGSGTDFTLTISSLQPEDFATYYCLQNVTNPATFSQGTKVEIKR |
| 9 | 6 | 1h-239-824 (other) VL: DIQMTQSPSSLSASVGDRVTITCRASQSIYPFLEWYQQKPGKAPKLLIYFTSRLRQGVPSRFSGSGSGTDFTLTISSLQPEDFATYYCLQNVTNPATFSQGTKVEIKR |
| 12 | 11 | 1h-239-832 (other) VL: DIQMTQSPSSLSASVGDRVTITCRASQSIYPFLEWYQQKPGKAPKLLIYFTSYLREGVPSRFSGSGSGTDFTLTISSLQPEDFATYYCLQNVTNPATFSQGTKVEIKR |
| 8 | 14 | 1h-239-828 (other) VL: DIQMTQSPSSLSASVGDRVTITCRASQSIYPFLEWYQQKPGKAPKLLIYFTSRLREGVPSRFSGSGSGTDFTLTISSLQPEDFATYYCLQNVTNPATFSQGTKVEIKR |
| 11 | 13 | 1h-239-816 (other) VL: DIQMTQSPSSLSASVGDRVTITCRASRTIYPFLEWYQQKPGKAPKLLIYFTSRLQSGVPSRFSGSGSGTDFTLTISSLQPEDFATYYCLQNVTNPATFSQGTKVEIKR |
| 1300 | – | 1h-239 (other) VL: DIQMTQSPSSLSASVGDRVTITCRASQSIYPFLEWYQQKPGKAPKLLIYFTSRLQSGVPSRFSGSGSGTDFTLTISSLQPEDFATYYCQQNATNPATFGQGTKVEIKR |
| 7 | 9 | 1h-239-817 (other) VL: DIQMTQSPSSLSASVGDRVTITCRASKPIYPFLEWYQQKPGKAPKLLIYFTSRLQSGVPSRFSGSGSGTDFTLTISSLQPEDFATYYCLQNVTNPATFSQGTKVEIKR |
| 7 | 6 | 1h-239-807 (other) VL: DIQMTQSPSSLSASVGDRVTITCRASRAIWPFLEWYQQKPGKAPKLLIYFTSRLQSGVPSRFSGSGSGTDFTLTISSLQPEDFATYYCLQNVTNPATFSQGTKVEIKR |
| 775 | – | 1h-238 (other) VL: DIQMTQSPSSLSASVGDRVTITCRASQHINASLGWYQQKPGKAPKLLIYWASQLQSGVPSRFSGSGSGTDFTLTISSLQPEDFATYYCQQMVRTPFTFGQGTKVEIKR |
